{"source": "paper PMC3594340", "about": "(Journal of the American Society for Mass Spectrometry, 2013)", "proteins": {"B1": {"name": "SO_2176 from Shewanella oneidensis (natural protein)", "chain": "MAIQSKYSNTQVESLIAEILVVLEKHKAPTDLSLMALGNCVTHLLERKVPSESRQAVAEQFAKALAQSVKSN"}}, "biological_target": "the molecule itself", "experiment": "cross-linking"}
{"protein": "B1", "values": [{"measurement": "binding result", "result": "binds"}]}
